# Laboratory results: publication PMC3405907
# How the values were obtained:
# [1] = biological target: capsid shell protein (CSP) of cytoplasmic polyhedrosis virus (cytoplasmic polyhedrosis virus (CPV)); test: cryo-EM structure
# [2] = biological target: turret protein (TP) of cytoplasmic polyhedrosis virus (cytoplasmic polyhedrosis virus (CPV)); test: cryo-EM structure
Substance,stoichiometry N [1],stoichiometry N [2]
capsid shell protein (CSP) of cytoplasmic polyhedrosis virus (natural protein),120,–
turret protein (TP) of cytoplasmic polyhedrosis virus (enzyme),–,5
